B1: RTP4 (parent)
chain: AFGWFRCSSCQRSWASAQVQILCH

Variants of: B1
Experiment: protein stability index of a GFP-peptide fusion (GPS, HEK-293T) (PSI 1-6); higher = more stable
Conditions: c terminus: a fixed tail appended
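Note: lentivirally expressed fusions sorted by FACS into six bins by GFP to DsRed ratio, PSI derived from sequencing read proportions per bin multiplied by bin number.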

Protein stability index: each site, then its substitutions
I21: F 2.39, K 1.03, Y 3.2, N 1.68, H 2.27, G 1.49, A 1.68, T 2.9, W 1.37, L 2.34
S16: E 3.11, W 1.86, D 2.46, K 2.9, Y 1.78, N 2.77, F 2.12, H 3.4, T 1.95
C23: M 3.79, F 2.59, E 2.8, Q 3.85, Y 2.81, P 2.83, S 1.8, N 2.21, I 4.29, L 2.78, T 1.93, K 2.35
Q20: K 2.83, V 2.08, L 4.4, T 1.24, W 1.69, A 1.57, C 2.17, Y 3.08
Q11: G 2.23, Y 4.15, D 2.83, V 4.38, E 1.88, W 1.81
W4: H 2.49, P 3.99, C 2.77
R12: S 2, W 2.71, Q 3.2, K 1.9, T 3.84, N 1.91, M 2.86, L 1.65, C 3.76
F5: C 1.77, G 2.57, Y 4, Q 2.99, I 2.35
W14: K 2.54, Y 2.11, S 2.45, M 1.1, P 3.31, T 3.22, L 1.57, C 3.08, A 1.8, N 2.96
G3: A 2.75, H 1.14
C10: L 2.7, R 2.77, N 3.16
A15: C 2.98, V 1.07, H 1.83, F 2, K 2.12, D 1.24, E 1.6, S 2.04, I 1.53
V19: M 3.54, S 2.36, T 2.79, Q 1.91, A 1.57, H 1.59, D 1.52, I 3.39
H24: Y 3.39, A 1.84, D 1.97, I 3.64, R 3.52, W 1.61, N 3.06
S9: C 2.09, G 1.9, H 3.52, I 2.15, F 2.75, L 2.59, K 1.72, M 3.56, T 4.83
F2: T 2.73, P 2.67
S8: H 2.39, P 2.27, D 3.96
Q18: M 3.17, P 2.52, A 2.37, S 2.14, K 1.42, V 4.68, N 1.71, I 2.59
R6: N 1.77, I 3.19, Y 2.65, H 2.77
L22: N 2.66, R 1.61, G 1.41, A 2.09, D 1.79, C 1.4
A17: H 2.31, M 1.86, Y 2.43, P 2.21, D 3.07, C 2.38, K 3.13
C7: Y 2.67, I 2.4, K 3.9, E 2.89, L 4.23, H 2.97, D 3.61, S 3.67
A1: W 2.44, H 1.78, T 2.12, C 2.22, G 3.21, S 4.21, R 3.15, E 1.79, Y 2.87
S13: Q 2.43, Y 3.16, D 2.27, V 3.12, M 2.09, P 2.41, W 3.02, F 1.54, N 3.74, R 2.27
